The series is described as follows: soluble fraction after stress (log2 fold change); higher = more stays soluble; pooled small domains, quantitative proteomics. The note with it: stress: 75 degC.
For the sequence “HMERVIYLLNGREVPAAEIRAAEPEALTVDRFYSSENLPAEYRDRNPELVVAFTAEEPLRHY”, the “soluble fraction (log2)” value came to 0.512.

In the case of “HMERVNILEKATKDIPNVEVKAFEGLSVNFARENHAQVIVRGLRAVTDFEYELQMAQTNRVLAPDVDTVF”, the “soluble fraction (log2)” value is -0.0564.

As for “HMERYSVQVGSFRNMRYAERLKQELQGEDFPAYIEKSGEFNRVRVGKGLTLEEATQLEQVLRKSGYQTVIV”, the “soluble fraction (log2)” value is -0.705.

For the sequence “HMESIGANIRRLRKERNMSQDELARKAFTNRSNINRYESGKMVPSADTTEKIEEALGVPAGTLAQ”, the “soluble fraction (log2)” value was -0.214.

For the sequence “HMESKDIRYVQLQTVSPEEVLQALALIMPRSDVYVEPTGKLVVLHGSKETLDRAEELILALDNAV”, the “soluble fraction (log2)” value is -0.116.

Take “HMESKITTAEAAAILNASPQFVRVAMQRGILNIGIAMQMPNSNKWTYNISPKLLGEYSGKNIEYELERLR”: the “soluble fraction (log2)” value is -1.65.

Turning to “HMESRTQVYDFYKDLFREKRRPLRAEEMLSALKSQRGIVGVNQYQIIEQHGIVRLSGSGRSALYWDTDLGS”, the “soluble fraction (log2)” value is -2.69.

On to “HMESSREVSFSEFMKQIDSGRVSSVKLDGETIYVRNSDGTSYKVIQPLGTDLIGVLRKSDIDVQAIKQ”, for which the “soluble fraction (log2)” value worked out at 0.107.

For the sequence “HMESYNIVEQVLTKKILSKGNTLAKLSNEFDGLVMLVIRGDEFIIPNGETLLFEKDILVINNGP”, the “soluble fraction (log2)” value was -2.68.

On to “HMESYTGLAVTEDDDGWSNVRSGNSTSYSILFKIYAGEKFNILSNDGKWSYIDFNGRKGYIHNSIIRKY”, for which the “soluble fraction (log2)” value is -3.82.

Regarding “HMETAADLLAAAKENPARFGILASEGRFGLGYMNDDLLDPDNLVAISREEADDLRGLGVYFHNLD”, the “soluble fraction (log2)” value is 0.293.

In the case of “HMETALYVEDLDRAVRFYESVMGLNTMSRGVRLVALDAGEGTVLLLFLRGATTSGASFEGGWIPPH”, the “soluble fraction (log2)” value came to 0.05.

“HMETDNEKVRTAFQNGLAAYREQDWDRAEAAFGAVLAEMPEDRPSLVYLERIAHLRKKAPPGAWDGVWI”: the “soluble fraction (log2)” value was -0.335.

For the sequence “HMETENLSPREREILEYIVKGYSYKMIAADLNIATETVRSHIKKIYKKLQVNSATEAVYKYSN”, the “soluble fraction (log2)” value was -1.51.

As to “HMETEQVEMIRVVGMHVDEAKKALLDLGLSPEIKYEESSSYDAGTVLRASVQDGLMIDKGTNIVLTVAEA”, the “soluble fraction (log2)” value stood at 0.293.

Turning to “HMETFEKIKELAKKRGKALGQVEEDLGYGRNTLYKIKNSTPNAERIAEIANYFNVSTDYLLGRTDNPTIAK”, the “soluble fraction (log2)” value came to 0.108.

As for “HMETFNMTQKEITRLRVINQAIDKVITIREAAELLGLSERQVIRLKGGVEKFGPAFIIHKNRGRKP”, the “soluble fraction (log2)” value is -1.57.

Take “HMETGLSNYEFKRIREQAEALLSDGQVRRINDLVDSIKNENAEKVIRVIRFLIDTEELILEDDRVSAKKS”: the “soluble fraction (log2)” value was -0.615.

Regarding “HMETIVGIDPDSKKKIVLKKGIKGRPDYLSFNKKNYSLPSELKEKNVSLEQALEIINDKKSNKKKIK”, the “soluble fraction (log2)” value turned out to be 0.369.

Take “HMETLSKVGSTGSEVRQIQTKLKNWGYFSDKVDGIYGEKTRAAVVWFQKKNGLTADGIAGPATLKAMGIYT”: the “soluble fraction (log2)” value was -0.705.

Take “HMETLSVRERMTSIISLLNKHEDIEFSKLFNISEGRLGVVVTFLALLELVKESLVDVIQNQPMSKLYIGKK”: the “soluble fraction (log2)” value is -0.278.

For the sequence “HMETLTPQEHKVLLLAVKGRTNGEIASELGIAQNTVKNHLAHIYAKMGVGNRTELASEYLRRIH”, the “soluble fraction (log2)” value is -0.203.

Consider “HMETTEELISKTVPISYADMAALTGILDGVKSARGDIQVDDRTSTIIIHDIQSSIDEMMRLIKILD”, for which the “soluble fraction (log2)” value is -1.04.

On to “HMETTMVEIKAEFTIRNRLDIPAMMEKAGYKDRGEFLSVLEKITGNYNWDRDVKKGDTFMVPSKLA”, for which the “soluble fraction (log2)” value is -1.75.

With “HMETVPMIDLRGMTQEQAEKAIVGLGLTVGTVDHSSSDMPAGQVWFQSVEPKDEVAPGTKVNIIISTGS”, the “soluble fraction (log2)” value was determined as 0.0577.

Turning to “HMETYNLDVGDSAVLQYQNVSRISVGNPDVLDAIPLDKSQILLTGKATGGAALIVWDSKGMHMEKVMVHPA”, the “soluble fraction (log2)” value is -0.428.

On to “HMETYTVSSKDGYANVRNEATVNSDLIAELKNGTLVTKFKEKGEWYYIEFEREDGTPFDYGYIHKSQLK”, for which the “soluble fraction (log2)” value was -0.00382.

Take “HMEVALEVPELRGLSMKQATNTLMASGFEVQKVGSGTIYAQFPLPGERLRTGYAVTIRGKTRDLG”: the “soluble fraction (log2)” value is -0.345.

Turning to “HMEVAPEKVLEALNELPEIYKIVLNLYAVENMSHKEIAKKLGISLGSSKSRLSRGRVMLNTLLNR”, the “soluble fraction (log2)” value was -1.3.

For the sequence “HMEVDWLEVEKVIVSSSYSWMENSPKVKLLQEYIGVTADGIYGLGTWGAHRTHAVDLGFINLSYPIP”, the “soluble fraction (log2)” value is -0.129.

As for “HMEVEADEFQQLLRSGEYVQALDRARANQDIGLRQQQIVQIARHQAASGIQAGAMGSLASLYQF”, the “soluble fraction (log2)” value is -0.0286.

Take “HMEVHLMPGTVLLREYESNEYRVTVTPEGFYDLNGKVFKSLSAVARHITGVNWSGPRFFGVEP”: the “soluble fraction (log2)” value was -2.81.

With “HMEVLSYYGSRGQEVVNIQTKLKQWGYYKGNIDGIFGNLTYQAVREFQRKNGLKVDGIVGPETLAALGLPT”, the “soluble fraction (log2)” value is -2.64.

Turning to “HMEVPQVETEKVEAKLKEAEVLLVKVTDSSLKANATETLAGLRNNLTLQTMDNNGIMAEAEKLLALLRES”, the “soluble fraction (log2)” value is 0.0802.

For the sequence “HMEVPTGNHIRRWRKSLDITQVKLSSLSGVAQSIIAKIENETVDPRVSTLRKLVEALSRFENP”, the “soluble fraction (log2)” value was -1.89.

Consider “HMEVQVGKQVRAFRETLGMTVQQFAERTGFSAALLAQIENRMVSPSLGTLVKIANTFGTTVSSFIG”, for which the “soluble fraction (log2)” value is -0.0249.

Take “HMEVSTDADFEAVGIRAELIPILQKLGFTTVAQLKEVKATKLFNDIPGMRKKLKLDAVQNPTLQEIEGWLK”: the “soluble fraction (log2)” value was -0.0412.

Consider “HMEVTLEEKLSYVEEYAKVHSHFSFRDLLKKQASKTQIVVTFLAILELMKTGKIQITQEHIFDDIVITAK”, for which the “soluble fraction (log2)” value was 0.0631.

Take “HMEVTYQETLRVLYNAIDKLPPQTKEIILIGLDGKDNNEIAATLNISVNTVKTLKKNAYKTLRELLVD”: the “soluble fraction (log2)” value was determined as 0.0283.

“HMEWNPEKQHLLENYITNYSRQLNDTGLFYKNLDWNYIFNLVGVDDQEFLMLKIDEIYDESINVY”: the “soluble fraction (log2)” value is -1.74.

Take “HMEWNREQLEQIVLQHIRKHGFITRATYTELTGRLKNSALADLKSFAAEGIIKRVGRGNQMHFIVPL”: the “soluble fraction (log2)” value is -2.35.

Consider “HMEWTDHLAEELRSLAVEGEHLEIIANKLGISPGSARAKLVNLNIYNDYQLAHIERLEADTLQAK”, for which the “soluble fraction (log2)” value is -0.349.

On to “HMEYFDDEELDRYKGRTSDSFTDDEAEEFREVMMTMHPEEVKAWNRSLILRDVAMPDQIKDDYIMLAG”, for which the “soluble fraction (log2)” value was -0.141.

As for “HMEYKYNPADYPYPLNEDIEKVYSAYREKSIGKLEAAVQNLYYTLKQARRDNILSDVKVNEMQQYFLALRN”, the “soluble fraction (log2)” value was -0.857.

With “HMEYNLTLEELNRDLYIRGEIWNVGDVVKTTDGDEGTIIRKGTNYVVFEDLRRVWLHNLEEVK”, the “soluble fraction (log2)” value was -1.51.

Take “HMEYREFEAMTIRAIATLPPTQGHVIMLSRFEGLDNKEIALRLNLSLQTVKNTLTQGLKELKNKMRKLP”: the “soluble fraction (log2)” value was -2.02.

With “HMEYSAAYDRELESIFNLTERGKWEEAEAEVGLLLQQYPEDKTLLRISEWVATQKTILREQAIEDRIRS”, the “soluble fraction (log2)” value was -0.0776.

Regarding “HMEYSYKLIDLLVDRFSEEGVDPEEAREYINLFHRFSQGLDPDKRDITKYSWDELYRTVNDKKDS”, the “soluble fraction (log2)” value amounted to 0.664.

Take “HMEYTVNHYPEKHRFEVVEDGLTAYVEYRLRGDALDIIHTIVPKNLEGRGIAATLVETAYKYAKEQ”: the “soluble fraction (log2)” value is -1.27.

In the case of “HMFAAIFADDSGFTTRSKRFGPYVEEIAADWQAVKQLSDEDAKQALVPLVKKIELALSTLQQFVSSV”, the “soluble fraction (log2)” value was -0.166.

Regarding “HMFAATGTVNTEGSSLRLRAEASTSSSVLKQLSHGTQVDVLSGLVDGWYQVSYKGTTGYVSGEYLTVTE”, the “soluble fraction (log2)” value is -0.704.

Consider “HMFADLNPDENYGQVYIRTNTIDNLYQTLLDNKTRIHPNGLLELKPWGQKEFSILDPDKNLLTFGES”, for which the “soluble fraction (log2)” value is -0.00771.

For the sequence “HMFAERLKELRKMRRFSQHALAERLGISQQAVGKWETGKSTPDPATLREIADIFEVSVDLLLGR”, the “soluble fraction (log2)” value was -1.17.

As to “HMFDDEELDRFAGVPADAYLPADEDEFREVFYTMRPGEVVEWVRSLELRHIEIPNGIKDEIFMMIR”, the “soluble fraction (log2)” value is -3.97.

With “HMFDEDKLIISIGSKVRIIREPYFGTIGKVVELPPELVKMDTEAMLRVAIIKLDDGEKVTIPRANLEVILS”, the “soluble fraction (log2)” value is -2.43.

Regarding “HMFDEVKDAARRLAALLDQAGGTLTLNDKSAPEEVAALTGMSKKVFKRALGHLMSRSEVVVADGRITKKD”, the “soluble fraction (log2)” value is -0.709.

On to “HMFDGRSDAEKTLDLIKTAIDNILKGGAIQEYKIGTRTAKKYDMAELQVLKGEYAAMVAREKQAETMA”, for which the “soluble fraction (log2)” value was -0.412.

Consider “HMFDGVAAGKPAILDALEDAGGFLPLNSKSSVEEIQASFSFSKRVFKQLIGMLYKERKIVITDDGIRLAD”, for which the “soluble fraction (log2)” value was -0.279.

Regarding “HMFDGYQWLKRDIIRGVYQPEEKLRMSLLTNRYGLGVGPLREALSQLVAEHLVTVVSQKGYRVAPM”, the “soluble fraction (log2)” value is -0.387.

“HMFDKNKPVVVEGENAEVALKKVSKYFNVPTEKLDYTLLGQKSAGLLGIGSKVYQFKVWLKREIP”: the “soluble fraction (log2)” value was -0.249.

Turning to “HMFDLENIRLTLARRLNVAAHLRPKYVAGFTLLLKQNFPEQNAEDLLNRLEHNQWLKVNQREIEYSPRLLM”, the “soluble fraction (log2)” value was -1.63.

Take “HMFDPAKQMQRIRKYAGMNRKEFSEWLNIPYRTMTDWELGNRTMPVYLLELIVYKVNHEIANA”: the “soluble fraction (log2)” value came to 0.588.

Regarding “HMFDREKFIKLGQEFARVAFENVNKRATDRALKTAAKHYGLPSADELLARLGSSEIAARDVVAELYPNL”, the “soluble fraction (log2)” value was -0.856.

For “HMFDSYDIYDEAGNTVNTVKGKLSWGHLLEIYDRFDNHIGTVQERVLTFLPKFLMYINGQEIGEIR”, the “soluble fraction (log2)” value is -0.164.

With “HMFDVNSMIAANIVAILKKQNRKQIDLAGALQTNKQTISKMLNGSRMINAIELKRIAEFLGVKMEELTKL”, the “soluble fraction (log2)” value is -2.23.

With “HMFDVRWEQGYALAAAYAQEYGNLDVPRDYKTADGKKLGRWIQSQEQAYEQKKLSEEQISRLEMIGMQWG”, the “soluble fraction (log2)” value is -0.98.

As for “HMFEDEPSEREIRISTLLAAFLKQEDGGTAVSRERFLKENSDVAEDLQILLEMADMIQEMAGP”, the “soluble fraction (log2)” value was -0.546.

Regarding “HMFEKIDINFADIHQLKGLPLNSEQINSIIEYRNQNGFIENIYDLKNVNGISIDKVHELKSYIFIIDV”, the “soluble fraction (log2)” value is -2.58.

As for “HMFENPRALLEMMISLGNEQGLINMARDIVSAGEFRRLELAAGGDRRKLARMLIDHLVEVAPRLP”, the “soluble fraction (log2)” value was -0.915.

“HMFEQFEVENLQELQQEWGDKFNHNLEMARRAFMNFATPEAVKVLEETGMGNHPELLKVFARIGEVLAED”: the “soluble fraction (log2)” value was -0.968.

The values above are taken from the domain aggregation screens of Martell et al. (2025).
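Further: 20 min heating vs room temperature control held 20 min.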
